Test results: patent US20220305056A1 (Janssen / Centocor, published 2022)
Ends that are not written are not given here.

Experiments:
[1] = target: T1, H3-23/L1-39 scFv with (G4S)4 peptide linker; experiment: bio-layer interferometry
T1 construct: also called inert scFv

[2] = target: T2, immobilized scFv containing a G4S linker; experiment: ELISA and flow cytometry (FIGS. 2 and 3)
T2 construct: Antigen coated on the ELISA plate at 0.1 ug/mL
Experimental: Plates were washed 3 times with PBS. […] Plates were washed 3 times with PBS. […] Optical density at 450 nm was measured on (SpectraMax M5, Molecular Devices; San Jose, Calif.). Data was analyzed in GraphPad Prism software (Graphpad).
HEK293-T cells were cultured in standard DMEM with (Dulbecco's Modified Eagle's Medium Components comprising glucose, L-glutamine, NaHCO₃, and phenol red). Transfection of cells with mRNA for linker containing scFv protein constructs was carried out following manufacturer's protocol (MessengerMax, Invitrogen). 5 μg of IVT synthesized mRNA was transfected in HEK293-T cells at a density of 1×10⁶ cells/mL and incubated 24 hours prior to flow cytometry analysis. Cells were added to 96 well U bottom plates at a concentration of 100,000 cells/well. Plates were spun at 300 g for 3 minutes and supernatant was discarded. Sytox green (Invitrogen) Live/Dead stain was added to the cells and incubated for 10 minutes at room temperature in a dark chamber. The cells were washed twice with PBS, and the supernatant was discarded. A 12 point 1:3 serial dilution with a starting concentration of 100 nM of primary antibody was prepared. The dilution series was added to cells and incubated for 1 hour at 4° C. in the dark. Plates were spun at 300 g for 3 minutes, the supernatants discarded, and cells washed twice with FACS running buffer (Becton Dickinson (BD), Franklin Lakes, N.J.). […]

[3] = target: T3, SEQ ID NO 49 (also: biotinylated); experiment: bio-layer interferometry, truncated peptide panel
T3 construct: Truncation variant of the (G4S)4 linker; also called truncated G4S peptide
T3 peptide: GGGGSGGGGSGGGGSG
Experimental: (§1) All reactions were performed at 25° C. in 1× kinetics buffer (ForteBio; Fremont, Calif.). Data were collected with Octet Data Acquisition program (ForteBio) and analyzed using Octet Data Analysis program (ForteBio).

[4] = target: T4, SEQ ID NO 50 (not fully specified; also: biotinylated); experiment: bio-layer interferometry, truncated peptide panel
T4 construct: Truncation variant of the (G4S)4 linker; also called truncated G4S peptide; L6
T4 peptide: GGGGSGGGGSGGGGS
Experimental: as §1

[5] = target: T5, SEQ ID NO 51 (also: biotinylated); experiment: bio-layer interferometry, truncated peptide panel
T5 construct: Truncation variant of the (G4S)4 linker; also called truncated G4S peptide
T5 peptide: GGGGSGGGGSGGGG
Experimental: as §1

[6] = target: T6, SEQ ID NO 52 (also: biotinylated); experiment: bio-layer interferometry, truncated peptide panel
T6 construct: Truncation variant of the (G4S)4 linker; also called truncated G4S peptide
T6 peptide: GGGGSGGGGSGGG
Experimental: as §1

[7] = target: T7, SEQ ID NO 53 (not fully specified; also: biotinylated); experiment: bio-layer interferometry, truncated peptide panel
T7 construct: Truncation variant of the (G4S)4 linker; also called truncated G4S peptide
T7 peptide: GGGGSGGGGSGG
Experimental: as §1

[8] = target: T8, 10-mer peptide (SEQ ID NO:55) (also: biotinylated); experiment: bio-layer interferometry, truncated peptide panel
T8 construct: Truncation variant of the (G4S)4 linker; smallest linker detected by CEN-63-13; also called smallest linker
T8 peptide: GGGGSGGGGS
Experimental: as §1

[9] = target: T9, SEQ ID NO 46 (also: biotinylated); experiment: bio-layer interferometry, truncated peptide panel
T9 construct: Truncation variant of the (G4S)4 linker; also called truncated G4S peptide
T9 peptide: GGGGSGGGGSGGGGSGGGG
Experimental: as §1

[10] = target: T10, SEQ ID NO 47 (also: biotinylated); experiment: bio-layer interferometry, truncated peptide panel
T10 construct: Truncation variant of the (G4S)4 linker; also called truncated G4S peptide
T10 peptide: GGGGSGGGGSGGGGSGGG
Experimental: as §1

[11] = target: T11, SEQ ID NO 48 (also: biotinylated); experiment: bio-layer interferometry, truncated peptide panel
T11 construct: Truncation variant of the (G4S)4 linker; also called truncated G4S peptide
T11 peptide: GGGGSGGGGSGGGGSGG
Experimental: as §1

[12] = target: T2, immobilized scFv containing a G4S linker; experiment: ELISA, scFv coated on the plate, anti-human Fc HRP detection
Experimental: MaxiSorb 96 plates (Nunc; Roskilde, Denmark) were coated with antigen at 0.1 μg/mL concentration and incubated overnight at 4° C. Plates were washed 3 times with PBS and blocked with PBS plus 5% milk powder for 1 hour at room temperature. Plates were washed 3 times with PBS. […] Plates were washed 3 times with PBS. […] Optical density at 450 nm was measured on (SpectraMax M5, Molecular Devices; San Jose, Calif.). Data was analyzed in GraphPad Prism software (Graphpad).

[13] = target: T12, (G4S)4 peptide (biotinylated); experiment: bio-layer interferometry, biotinylated peptide on streptavidin sensor
T12 construct: Biotinylated peptide immobilised on streptavidin biosensors for BLI; also called WT (G4S)4 peptide linker; WT G4S linker
T12 peptide: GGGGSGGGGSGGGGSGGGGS
Experimental: as §1

[14] = target: T13, cell-surface scFv with a G4S linker (CAR-T construct on transfected HEK293T cells); experiment: flow cytometry on HEK293T cells transfected with CAR-T constructs, fluorescent anti-human Fc detection
T13 construct: also called cell surface antigen; linker containing scFv protein construct
Experimental: HEK293-T cells were cultured in standard DMEM with (Dulbecco's Modified Eagle's Medium Components comprising glucose, L-glutamine, NaHCO₃, and phenol red). Transfection of cells with mRNA for linker containing scFv protein constructs was carried out following manufacturer's protocol (MessengerMax, Invitrogen). 5 μg of IVT synthesized mRNA was transfected in HEK293-T cells at a density of 1×10⁶ cells/mL and incubated 24 hours prior to flow cytometry analysis. Cells were added to 96 well U bottom plates at a concentration of 100,000 cells/well. Plates were spun at 300 g for 3 minutes and supernatant was discarded. Sytox green (Invitrogen) Live/Dead stain was added to the cells and incubated for 10 minutes at room temperature in a dark chamber. The cells were washed twice with PBS, and the supernatant was discarded. A 12 point 1:3 serial dilution with a starting concentration of 100 nM of primary antibody was prepared. The dilution series was added to cells and incubated for 1 hour at 4° C. in the dark. Plates were spun at 300 g for 3 minutes, the supernatants discarded, and cells washed twice with FACS running buffer (Becton Dickinson (BD), Franklin Lakes, N.J.). Secondary antibody (Anti human Fc, Biolegend; San Diego, Calif.) was diluted in FACS buffer according to manufacturer's protocol. 50 μl of secondary antibody was added to the cells and incubated for 30 minutes at 4° C. in the dark. […]

B1: CEN-63-13 mAb (antibody, human IgG1, V domains shown)
VH: QSVKESGGRLVTPGTPLTLTCTVSGFSLSSNAIDWVRQAPGKGLEWIGILGRSGSTYYASWAKGRFTISRTSSTTVDLKITSPTTEDTATYFCARHFYLWGPGTLVTVSS
VL: AQVLTQTASPVSAAVGGTVTINCQASQSVYSNYLSWYQQKPGQPPKLLMATTSTLEPGVPSRFKGSGSGTQFTLTISDLECDDAATYYCAGGYSVDIWVFGGGTEVVVKR
notes: also called CEN-63 C13; CEN-63 C13 anti-G4S antibody
- Kd [1]: 8.1 nM
- Kd [2]: 0.57 nM
- fold decrease in binding affinity compared to WT G4S linker [3]: 2 fold
- fold decrease in binding affinity compared to WT G4S linker [4]: 2 fold
- fold decrease in binding affinity compared to WT G4S linker [5]: 2 fold
- fold decrease in binding affinity compared to WT G4S linker [6]: 2 fold
- fold decrease in binding affinity compared to WT G4S linker [7]: 2 fold
- fold decrease in binding affinity compared to WT G4S linker [8]: 6 fold
- fold decrease in binding affinity compared to WT G4S linker [9]: 2 fold
- fold decrease in binding affinity compared to WT G4S linker [10]: 2 fold
- fold decrease in binding affinity compared to WT G4S linker [11]: 2 fold
- EC50 [12]: 0.57 nM
- Kd [13]: 3.6 nM
- EC50 [14]: 0.78 nM
